Data taken from paper PMC11978755.

Tests used:
[1] = biological target: Recombinant hemagglutinin-esterase-fusion (HEF) ectodomain of influenza D virus D/swine/Oklahoma/1334/2011 (influenza D virus (D/swine/Oklahoma/1334/2011)); assay: BLI
[2] = biological target: Recombinant hemagglutinin-esterase-fusion (HEF) ectodomain of influenza C virus C/Johannesburg/1/1966 (influenza C virus (C/Johannesburg/1/1966)) (UniProt P07975); assay: BLI
UniProt P07975, sequence (P07975 15-630): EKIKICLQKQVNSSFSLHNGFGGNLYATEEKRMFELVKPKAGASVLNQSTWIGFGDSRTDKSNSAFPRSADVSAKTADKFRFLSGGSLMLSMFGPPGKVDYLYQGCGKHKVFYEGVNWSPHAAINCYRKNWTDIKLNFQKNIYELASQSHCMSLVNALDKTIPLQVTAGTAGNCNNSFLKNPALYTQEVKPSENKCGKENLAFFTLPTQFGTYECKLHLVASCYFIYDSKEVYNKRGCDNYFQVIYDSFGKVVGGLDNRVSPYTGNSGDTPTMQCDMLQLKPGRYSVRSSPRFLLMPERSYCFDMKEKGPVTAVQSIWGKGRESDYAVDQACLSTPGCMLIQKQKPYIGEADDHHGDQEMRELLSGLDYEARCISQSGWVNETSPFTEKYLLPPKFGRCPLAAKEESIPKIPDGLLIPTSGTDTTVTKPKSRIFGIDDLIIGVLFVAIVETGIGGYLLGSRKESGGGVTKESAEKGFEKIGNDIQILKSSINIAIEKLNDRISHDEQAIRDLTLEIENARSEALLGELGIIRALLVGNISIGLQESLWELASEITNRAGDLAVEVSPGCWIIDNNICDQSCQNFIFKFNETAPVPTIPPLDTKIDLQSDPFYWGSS

Substance | Kd [1] | Kd [2]
CR9114 IgM (pentameric, ten antigen binding sites) (antibody) | > 100 µM | > 100 µM
CR9114 IgG (human IgG1, wild type) (antibody) | > 100 µM | > 100 µM
